Laboratory results reported in paper PMC5892938, “SARNAclust: Semi-automatic detection of RNA protein binding motifs from immunoprecipitation data”.
Where a chain is given by its changes, count along the chain named.

Molecular target: GST-SBP-SLBP (stem-loop binding protein) (Homo sapiens, UniProt Q14493 1-270)
Test: targeted RNA Bind-n-Seq; RBNS binding buffer: 25 mM Tris pH 7.5, 150 mM KCl, 3 mM MgCl2, 0.1% Tween, 0.5 mg/mL BSA, 1 mM DTT; 27 nM protein, 750 pM RNA pool; temperature not stated; high values mean tight binding
Settings: protein: recombinant; tags: N-terminal GST and SBP (pGEX6P1-SBP)
How it was run: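 A designed RNA oligo pool, transcribed with T7, was present at 750 pM and incubated in RBNS binding buffer with 27 nM of GST-SBP-tagged protein that had been expressed in Rosetta(DE3) pLysS E. coli and purified with glutathione. After reverse transcription with a 10-nucleotide barcoded primer and PCR, the bound RNA was sequenced as 200-cycle paired-end reads on a MiSeq. Each sequence's binding signal is the DEseq binary-logarithm fold change in read counts, computed after joining reads with FLASH, aligning with HISAT2 and collapsing by barcode.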

B1: consensus (structured_RNA)
RNA: GGUCACGUCUCAAUCAACUCCCAAAGGCCCUUUUCAGGGCCACCCAUCAACAGCUCGCAGUCAAG
Which binding signal does the source give for B1 here?
Its binding signal is 3.92 ± 0.166 log2 fold change.

B2: consensus (structured_RNA)
RNA: B1 RNA with C28U, C30U, C35A
B2 was tested. Which binding signal did it give?
Its binding signal is 1.43 ± 0.177 log2 fold change.

B3: consensus (structured_RNA)
RNA: B1 RNA with C28U, C30U, C35A, G39A
With B3 as the binder, how does the binding signal read?
Its binding signal is 1.91 ± 0.158 log2 fold change.

B4: consensus (structured_RNA)
RNA: B1 RNA with C28U, C30U, U33C, C35U, G39A
B4 was tested. Which binding signal did it give?
Its binding signal is 0.816 ± 0.166 log2 fold change.

B5: consensus (structured_RNA)
RNA: B1 RNA with C28U, C29U, U33C, C35U, G38A
Which binding signal does the source give for B5 here?
The binding signal was 2.28 ± 0.146 log2 fold change.

B6: consensus (structured_RNA)
RNA: B1 RNA with C28U, C30U, U33C, G37A, G39A
How did the binding signal turn out when B6 was run?
Its binding signal is 3.5 ± 0.113 log2 fold change.

B7: consensus (structured_RNA)
RNA: B1 RNA with C29U
How did the binding signal turn out when B7 was run?
The binding signal was 3.57 ± 0.122 log2 fold change.

B8: consensus (structured_RNA)
RNA: B1 RNA with C29U, C35A, G38A
How did the binding signal turn out when B8 was run?
The binding signal was 3.5 ± 0.152 log2 fold change.

B9: consensus (structured_RNA)
RNA: B1 RNA with C30U, U33C, C35U, G37A
For B9, which binding signal is on record?
The binding signal was 3.55 ± 0.131 log2 fold change.

B10: consensus (structured_RNA)
RNA: B1 RNA with C28U, C30U, G39A
B10 was tested. Which binding signal did it give?
Its binding signal is 1.9 ± 0.145 log2 fold change.

B11: consensus (structured_RNA)
RNA: B1 RNA with C29U, C30U, U33C, C35A
B11 was tested. Which binding signal did it give?
The binding signal was 1.52 ± 0.156 log2 fold change.

B12: consensus (structured_RNA)
RNA: B1 RNA with C29U, C30U, C35U, G38A
How did the binding signal turn out when B12 was run?
Its binding signal is 0.854 ± 0.146 log2 fold change.

B13: consensus (structured_RNA)
RNA: B1 RNA with C28U, C30U
For B13, which binding signal is on record?
Its binding signal is 1.25 ± 0.15 log2 fold change.

B14: consensus (structured_RNA)
RNA: B1 RNA with C28U, C30U, C35U, G39A
For B14, which binding signal is on record?
Its binding signal is 0.994 ± 0.148 log2 fold change.

B15: consensus (structured_RNA)
RNA: B1 RNA with C29U, C30U, U33C, C35A, G38A
For B15, which binding signal is on record?
The binding signal was 1.33 ± 0.16 log2 fold change.

B16: consensus (structured_RNA)
RNA: B1 RNA with C28U, C29U, C30U, C35A, G38A, G39A
For B16, which binding signal is on record?
The binding signal was 0.759 ± 0.157 log2 fold change.

B17: consensus (structured_RNA)
RNA: B1 RNA with C28U, C29U, C30U, U33C, G37A, G38A
B17 was tested. Which binding signal did it give?
Its binding signal is 2.22 ± 0.14 log2 fold change.

B18: consensus (structured_RNA)
RNA: B1 RNA with C28U, C30U, U33C, C35A, G39A
Which binding signal does the source give for B18 here?
Its binding signal is 1.6 ± 0.134 log2 fold change.

B19: consensus (structured_RNA)
RNA: B1 RNA with C28U, C30U, U33C, C35G, G37A
For B19, which binding signal is on record?
Its binding signal is 2.15 ± 0.13 log2 fold change.

B20: consensus (structured_RNA)
RNA: B1 RNA with C29U, C30U, G38A
For B20, which binding signal is on record?
Its binding signal is 1.75 ± 0.155 log2 fold change.

B21: consensus (structured_RNA)
RNA: B1 RNA with C28U, C30U, U33C
B21 was tested. Which binding signal did it give?
The binding signal was 0.935 ± 0.161 log2 fold change.

B22: consensus (structured_RNA)
RNA: B1 RNA with C29U, U33C, C35G
With B22 as the binder, how does the binding signal read?
Its binding signal is 2.28 ± 0.154 log2 fold change.

B23: consensus (structured_RNA)
RNA: B1 RNA with C28U, C30U, U33C, G39A
For B23, which binding signal is on record?
The binding signal was 1.31 ± 0.141 log2 fold change.

B24: consensus (structured_RNA)
RNA: B1 RNA with C30U, C35A
For B24, which binding signal is on record?
The binding signal was 2.24 ± 0.139 log2 fold change.

B25: consensus (structured_RNA)
RNA: B1 RNA with C28U, C29U, C30U, C35G, G37A, G38A, G39A
With B25 as the binder, how does the binding signal read?
Its binding signal is 2.28 ± 0.151 log2 fold change.

B26: consensus (structured_RNA)
RNA: B1 RNA with C30U, U33C, C35U
B26 was tested. Which binding signal did it give?
Its binding signal is 1.28 ± 0.157 log2 fold change.

B27: consensus (structured_RNA)
RNA: B1 RNA with C29U, C30U, G37A, G38A
Which binding signal does the source give for B27 here?
Its binding signal is 3.5 ± 0.119 log2 fold change.

B28: consensus (structured_RNA)
RNA: B1 RNA with C35A
How did the binding signal turn out when B28 was run?
Its binding signal is 3.52 ± 0.16 log2 fold change.

B29: consensus (structured_RNA)
RNA: B1 RNA with C28U, C29U, U33C, C35U, G39A
For B29, which binding signal is on record?
The binding signal was 2.26 ± 0.144 log2 fold change.

B30: consensus (structured_RNA)
RNA: B1 RNA with C28U, C29U, C30U, C35G, G37A, G38A
For B30, which binding signal is on record?
Its binding signal is 1.56 ± 0.147 log2 fold change.

B31: consensus (structured_RNA)
RNA: B1 RNA with C29U, C30U, U33C
With B31 as the binder, how does the binding signal read?
Its binding signal is 1.31 ± 0.138 log2 fold change.

B32: consensus (structured_RNA)
RNA: B1 RNA with C28U, C30U, U33C, C35A
For B32, which binding signal is on record?
The binding signal was 1.09 ± 0.185 log2 fold change.

B33: consensus (structured_RNA)
RNA: B1 RNA with C30U, C35G
B33 was tested. Which binding signal did it give?
Its binding signal is 1.42 ± 0.169 log2 fold change.

B34: consensus (structured_RNA)
RNA: B1 RNA with C29U, C30U, U33C, C35U
B34 was tested. Which binding signal did it give?
The binding signal was 0.933 ± 0.168 log2 fold change.

B35: consensus (structured_RNA)
RNA: B1 RNA with C30U
For B35, which binding signal is on record?
Its binding signal is 2.4 ± 0.137 log2 fold change.

B36: consensus (structured_RNA)
RNA: B1 RNA with C29U, C30U, C35A, G38A
How did the binding signal turn out when B36 was run?
The binding signal was 1.64 ± 0.15 log2 fold change.

B37: consensus (structured_RNA)
RNA: B1 RNA with C30U, U33C
For B37, which binding signal is on record?
Its binding signal is 1.93 ± 0.129 log2 fold change.

B38: consensus (structured_RNA)
RNA: B1 RNA with C28U, U33C, C35G
B38 was tested. Which binding signal did it give?
Its binding signal is 2.11 ± 0.151 log2 fold change.

B39: consensus (structured_RNA)
RNA: B1 RNA with C30U, C35U, G37A
Which binding signal does the source give for B39 here?
Its binding signal is 3.59 ± 0.129 log2 fold change.

B40: consensus (structured_RNA)
RNA: B1 RNA with C30U, U33C, G37A
For B40, which binding signal is on record?
Its binding signal is 3.84 ± 0.117 log2 fold change.

B41: consensus (structured_RNA)
RNA: B1 RNA with C28U, C29U, C30U, C35U, G37A, G38A
For B41, which binding signal is on record?
The binding signal was 2.23 ± 0.157 log2 fold change.

B42: consensus (structured_RNA)
RNA: B1 RNA with C29U, C30U, U33C, G38A
Which binding signal does the source give for B42 here?
The binding signal was 0.979 ± 0.14 log2 fold change.

B43: consensus (structured_RNA)
RNA: B1 RNA with C28U, C29U, C30U, U33C, C35U, G37A, G38A
For B43, which binding signal is on record?
Its binding signal is 1.97 ± 0.127 log2 fold change.

B44: consensus (structured_RNA)
RNA: B1 RNA with C29U, C30U, U33C, C35G, G37A
Which binding signal does the source give for B44 here?
The binding signal was 2 ± 0.133 log2 fold change.

B45: consensus (structured_RNA)
RNA: B1 RNA with C28U, C29U, C30U, G38A
B45 was tested. Which binding signal did it give?
Its binding signal is 0.623 ± 0.163 log2 fold change.

B46: consensus (structured_RNA)
RNA: B1 RNA with C28U, C29U, C30U, G38A, G39A
Which binding signal does the source give for B46 here?
Its binding signal is 0.928 ± 0.165 log2 fold change.

B47: consensus (structured_RNA)
RNA: B1 RNA with C29U, C30U, C35U
With B47 as the binder, how does the binding signal read?
Its binding signal is 1.3 ± 0.179 log2 fold change.

B48: consensus (structured_RNA)
RNA: B1 RNA with C28U, C29U, C30U, U33C, C35G, G37A, G38A, G39A
How did the binding signal turn out when B48 was run?
Its binding signal is 2.15 ± 0.131 log2 fold change.

B49: consensus (structured_RNA)
RNA: B1 RNA with C29U, C30U, C35A
B49 was tested. Which binding signal did it give?
The binding signal was 1.95 ± 0.161 log2 fold change.

B50: consensus (structured_RNA)
RNA: B1 RNA with C28U, C30U, C35A, G37A, G39A
How did the binding signal turn out when B50 was run?
The binding signal was 3.5 ± 0.12 log2 fold change.

B51: consensus (structured_RNA)
RNA: B1 RNA with C28U, C30U, C35U
For B51, which binding signal is on record?
Its binding signal is 0.724 ± 0.177 log2 fold change.

B52: consensus (structured_RNA)
RNA: B1 RNA with C28U, C29U, C30U, U33C, C35A, G38A, G39A
How did the binding signal turn out when B52 was run?
Its binding signal is 0.796 ± 0.151 log2 fold change.

B53: consensus (structured_RNA)
RNA: B1 RNA with C30U, U33C, C35A
How did the binding signal turn out when B53 was run?
Its binding signal is 2.22 ± 0.143 log2 fold change.

B54: consensus (structured_RNA)
RNA: B1 RNA with C28U, G39A
Which binding signal does the source give for B54 here?
Its binding signal is 3.59 ± 0.127 log2 fold change.

B55: consensus (structured_RNA)
RNA: B1 RNA with C30U, C35U
For B55, which binding signal is on record?
Its binding signal is 1.9 ± 0.154 log2 fold change.

B56: consensus (structured_RNA)
RNA: B1 RNA with C28U, C35A, G39A
How did the binding signal turn out when B56 was run?
The binding signal was 3.61 ± 0.128 log2 fold change.

B57: consensus (structured_RNA)
RNA: B1 RNA with C28U, C29U, C35U
How did the binding signal turn out when B57 was run?
The binding signal was 2.15 ± 0.148 log2 fold change.

B58: consensus (structured_RNA)
RNA: B1 RNA with C29U, C30U
Which binding signal does the source give for B58 here?
The binding signal was 1.99 ± 0.171 log2 fold change.
